Drawing on article PMC5552909, “The first description of a hormone‐sensitive lipase from a basidiomycete: Structural insights and biochemical characterization revealed Bjerkandera adusta BaEstB as a novel esterase” (MicrobiologyOpen, 2017), this text covers stoichiometry N, Km and kcat for 2 molecules.

Usually stoichiometry N stands for the number of molecules, sites or subunits per partner or assembly. By Km is commonly meant the substrate concentration at which the rate is half of its maximum.

In data set [1] the target is Bjerkandera adusta BaEstB, Hormone-Sensitive Lipase (HSL) family esterase (Bjerkandera adusta). Kind of data set: dynamic light scattering (DLS); purified BaEstB in presence of the substrate 2-naphthyl acetate; same conditions, considering its optimum pH and temperature; 12 scans of 10 s.
Data set [2] shares this target. The data set is described as follows: dynamic light scattering (DLS); purified BaEstB without substrate; 30°C; Malvern Zetasizer Nano ZSP; 12 scans of 10 s; hydrodynamic radius from the Stokes-Einstein equation assuming spherical geometry.
Substrate in data set [3]: CC(=O)Oc1ccc2ccccc2c1
The data set is described as follows: isothermal titration calorimetry, single injection, Michaelis-Menten fit. It counts as biochemical, Bjerkandera adusta. The conditions noted are these: 30°C in methods, results state optimum pH and temperature (pH 7.0; 45°C). On the technique in general: In ITC the heat of successive injections is recorded.

For “Bjerkandera adusta BaEstB, Hormone-Sensitive Lipase (HSL) family esterase (enzyme)”, the stoichiometry N in data set [1] and in data set [2] was 2 throughout.

B1: BaEstB (Bjerkandera adusta) (protein)
chain: MESIRLSNAAGTISNDILAQVTFANEAIYPLLEKRRAEIENVTRKTFRYGALPGSEMDVYYPSSTPSGKAPVLAFVHGGAYVHGSKTHPPPGDLIYKNVGAFYASQGFVTVIPDYRKLPGMKWPDAPSDIASALTFLVAHSSDVNASAPTAADVQNIFLVGHSAGGAIASDVLLAPGLLPANVRRSVRGLIVFGGMMHYRGLEYPIPPFVLPGYYGTDEDVRAHEPLGLLESASDEIVRGLPDVLMVLSEHDVAAMRAAVTDFRSALAERTGKDVPLLVAQGHNHISPHYALSSGEGEEWGHDVIRWMRAKLASGNGVPATE
notes: full-length ORF (969 nt, M1-E322) in pPICZalphaA with myc and poly-His tags; secreted from Pichia pastoris X-33; dimer by DLS; catalytic triad S163, D252, H285
Consider B1, for which, in data set [3], the Km was 7.68 ± 0.62 µM and the kcat is 5.31 × 10^3 ± 20 s^−1.
